The star is where a group is joined. Palmitoyl = CCCCCCCCCCCCCCCC(=O)*; NHhexadecyl = CCCCCCCCCCCCCCCCN*; AMC = Cc1cc(=O)oc2cc(N*)ccc12; Cbz = O=C(OCc1ccccc1)*
B1: C15H31C(O)-Lys-(Gly)2-Lys-NHC16H33 (C16-KG2K-C16) (peptide)
peptide: Palmitoyl-KGGK-NHhexadecyl
SMILES: CCCCCCCCCCCCCCCCNC(=O)[C@H](CCCCN)NC(=O)CNC(=O)CNC(=O)[C@H](CCCCN)NC(=O)CCCCCCCCCCCCCCC
B2: C15H31C(O)-Lys-(Ala)2-Lys-NHC16H33 (C16-KA2K-C16) (peptide)
peptide: Palmitoyl-KAAK-NHhexadecyl
SMILES: CCCCCCCCCCCCCCCCNC(=O)[C@H](CCCCN)NC(=O)[C@H](C)NC(=O)[C@H](C)NC(=O)[C@H](CCCCN)NC(=O)CCCCCCCCCCCCCCC

Columns and labels:
human furin = human furin (Homo sapiens, UniProt P09958)
[1] = biological target: DENV2 protease (NS2B-NS3 construct CF40-…-NS3) (dengue virus serotype 2)
DENV2 protease = DENV2 protease (Dengue virus type 2, UniProt P14340); design: the vector with CF40 fused to NS3pro was used; hexahistidine (N); made in house; host or cells: E. coli strain SG13009; method as in PMID 17184724; conditions: ref [23], cited from earlier work
DENV2 protease, sequence (P14340 1476-1653): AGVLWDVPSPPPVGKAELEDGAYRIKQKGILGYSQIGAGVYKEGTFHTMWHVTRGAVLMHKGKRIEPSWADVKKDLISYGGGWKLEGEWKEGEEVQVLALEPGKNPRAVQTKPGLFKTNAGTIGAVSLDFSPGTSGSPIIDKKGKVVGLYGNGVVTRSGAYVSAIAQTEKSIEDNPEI
DENV2 protease, sequence (P14340 1398-1437): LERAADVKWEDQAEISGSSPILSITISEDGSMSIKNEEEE

human furin, sequence (P09958 27-794): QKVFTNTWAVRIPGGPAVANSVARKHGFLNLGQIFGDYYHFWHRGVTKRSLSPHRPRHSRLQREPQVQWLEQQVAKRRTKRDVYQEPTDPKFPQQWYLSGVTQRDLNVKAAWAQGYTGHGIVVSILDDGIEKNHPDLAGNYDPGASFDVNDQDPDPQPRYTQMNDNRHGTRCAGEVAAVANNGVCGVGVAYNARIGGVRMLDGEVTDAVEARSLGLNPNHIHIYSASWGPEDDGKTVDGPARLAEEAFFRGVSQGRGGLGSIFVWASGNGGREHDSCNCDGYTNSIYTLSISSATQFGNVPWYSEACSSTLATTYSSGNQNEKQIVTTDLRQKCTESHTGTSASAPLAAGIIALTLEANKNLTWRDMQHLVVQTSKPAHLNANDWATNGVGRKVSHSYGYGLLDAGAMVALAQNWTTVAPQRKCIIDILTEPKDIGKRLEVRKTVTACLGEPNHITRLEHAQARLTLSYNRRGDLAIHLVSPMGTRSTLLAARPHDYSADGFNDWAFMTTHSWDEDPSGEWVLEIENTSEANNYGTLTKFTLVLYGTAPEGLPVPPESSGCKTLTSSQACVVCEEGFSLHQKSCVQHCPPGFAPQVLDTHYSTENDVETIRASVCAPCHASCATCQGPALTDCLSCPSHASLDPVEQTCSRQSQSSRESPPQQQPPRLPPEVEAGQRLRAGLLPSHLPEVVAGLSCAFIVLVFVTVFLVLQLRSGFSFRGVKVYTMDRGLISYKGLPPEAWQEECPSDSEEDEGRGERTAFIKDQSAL

Molecule	IC50 of inhibition of trypsin activity (4 nM trypsin, 11.4 µM Z-FR-MCA, 100 mM Tris.HCl pH 8.0, 10 mM CaCl2) (trypsin) [µM]	IC50 of inhibition of furin activity (0.76 nM furin, substrate Ac-RVRR-MCA, 10 mM MES pH 7.0, 37 °C) (human furin) [µM]	IC50 of inhibition of DENV2 protease activity (20 nM enzyme, substrate Z-RR-MCA, 50 mM Tris.HCl pH 9.0, 20% glycerol, 37 °C) [1] [µM]	IC50 of inhibition of DENV2 protease activity (50 µM Tyr(3-NO2) substrate, 50 mM Tris.HCl pH 9.0, 10% ethylene glycol, 0.0016% Brij 58) [1] [µM]	kcat for hydrolysis of the substrate (DENV2 protease) [s⁻¹]	Km (DENV2 protease; read-out: KM for hydrolysis of the substrate) [µM]
C15H31C(O)-Lys-(Ala)-Lys-NHC16H33 (C16-KAK-C16) (peptide)	17.2	3.57	0.66	2.3	–	–
C15H31C(O)-Lys-(Gly)-Lys-NHC16H33 (C16-KGK-C16) (peptide)	41	–	1.94	2.1	–	–
C15H31C(O)-Lys-Lys-NHC16H33 (C16-KK-C16) (peptide)	85.7	–	4.25	–	–	–
Cbz-Arg-Arg-{AMC}	–	–	–	–	0.11	247
B1	–	–	3.69	10.2	–	–
B2	20.9	2.14	0.8	1.4	–	–

From paper PMC9143577, “Cationic Geminoid Peptide Amphiphiles Inhibit DENV2 Protease, Furin, and Viral Replication” (Molecules, 2022)
